Assay [1] concerns the target T1, EGFR L858R peptide on HLA-A*11:01 (human).
T1 peptide: KITDFGRAK
Description: killing.

Assay [2] addresses T1, EGFR L858R peptide on HLA-A*11:01. Description: multimer staining.
Assay [3] has as its target … (SEQ ID NO:71) presented on HLA-A*1101 on HLA-A*1101-transduced 293 target cells (human). Description: cell-based or functional assay.

B1: EGFRA11 TCRA11-6 (TCR, V domains shown)
Valpha: QKITQTQPGMFVQEKEAVTLDCTYDTSDQSYGLFWYKQPSSGEMIFLIYQGSYDEQNATEGRYSLNFQKARKSANLVISASQLGDSAMYFCAMNTGFQKLVFGTGTRLLVSP
Vbeta: DAGVIQSPRHEVTEMGQEVTLRCKPISGHDYLFWYRQTMMRGLELLIYFNNNVPIDDSGMPEDRFSAKMPNASFSTLKIQPSEPRDSAVYFCASRNGPEAFFGQGTRLTVV
On to B1, for which the binding result in assay [1] is “recognises”.

B2: EGFRA11 TCRA11-7-8 (TCR, V domains shown)
Valpha: RKEVEQDPGPFNVPEGATVAFNCTYSNSASQSFFWYRQDCRKEPKLLMSVYSSGNEDGRFTAQLNRASQYISLLIRDSKLSDSATYLCVVIGGGADGLTFGKGTHLIIQP
Vbeta: GVIQSPRHEVTEMGQEVTLRCKPISGHDYLFWYRQTMMRGLELLIYFNNNVPIDDSGMPEDRFSAKMPNASFSTLKIQPSEPRDSAVYFCASRNGPEAFFGQGTRLTVV
With B2, in assay [2], the binding result is reported as “recognises”.

B3: EGFRA11 TCRA11-7-18 (TCR, V domains shown)
Valpha: RKEVEQDPGPFNVPEGATVAFNCTYSNSASQSFFWYRQDCRKEPKLLMSVYSSGNEDGRFTAQLNRASQYISLLIRDSKLSDSATYLCVVIGGGADGLTFGKGTHLIIQP
Vbeta: EPEVTQTPSHQVTQMGQEVILRCVPISNHLYFYWYRQILGQKVEFLVSFYNNEISEKSEIFDDQFSVERPDGSNFTLKIRSTKLEDSAMYFCASSGQGDLLYGYTFGSGTRLTVV
For the molecule B3, the binding result in assay [2] was “recognises”.

B4: EGFRA11 TCRA11-7-12 (TCR, V domains shown)
Valpha: RKEVEQDPGPFNVPEGATVAFNCTYSNSASQSFFWYRQDCRKEPKLLMSVYSSGNEDGRFTAQLNRASQYISLLIRDSKLSDSATYLCVVIGGGADGLTFGKGTHLIIQP
Vbeta: GVTQSPTHLIKTRGQQVTLRCSSQSGHNTVSWYQQALGQGPQFIFQYYREEENGRGNFPPRFSGLQFPNYSSELNVNALELDDSALYLCASSVGGDTEAFFGQGTRLTVV
Consider B4, for which the binding result in assay [2] is “recognises”.

B5: #1. EGFRA11 TCRA11-6; TRAV14DV4*02 J8*01/TRBV12-4*01 C1 J1-1*01 (TCR)
TCR alpha: QKITQTQPGMFVQEKEAVTLDCTYDTSDQSYGLFWYKQPSSGEMIFLIYQGSYDEQNATEGRYSLNFQKARKSANLVISASQLGDSAMYFCAMNTGFQKLVFGTGTRLLVSPNIQNPDPAVYQLRDSKSSDKSVCLFTDFDSQTNVSQSKDSDVYITDNAVLDMRSMDFKSNSAVAWSNKSDFACANAFNNSIIPEDTFFPSPESSCDVKLVEKSFETDTNLNFQNLSVIGFRILLLKVAGFNLLMTLRLWSSRAKRSGSGATNFSLLKQAGDVEENPGP
TCR beta: GVIQSPRHEVTEMGQEVTLRCKPISGHDYLFWYRQTMMRGLELLIYFNNNVPIDDSGMPEDRFSAKMPNASFSTLKIQPSEPRDSAVYFCASRNGPEAFFGQGTRLTVVEDLNKVFPPEVAVFEPSEAEISHTQKATLVCLATGFFPDHVELSWWVNGKEVHSGVCTDPQPLKEQPALNDSRYCLSSRLRVSATFWQNPRNHFRCQVQFYGLSENDEWTQDRAKPVTQIVSAEAWGRADCGFTSVSYQQGVLSATILYEILLGKATLYAVLVSALVLMAMVKRKDF
In the case of B5, the specific lysis of 293A11 cells pulsed with different amounts of EGFR-A11 peptide, T cells expressing TCR6 construct at a 20:1 ratio (Cr51 release) in assay [3] worked out at 20 ng/mL.

For the origin of these results see patent US20240009240A1 (published 2024).
